According to patent US20040138440A1, “Aspergillus fumigatus cofilin” (priority 2004, published 2004):

Molecular target: T1, preassembled pyrene-actin filaments (Gallus gallus, UniProt P68139)
T1 construct: Mince 2 kg of fresh, boneless, skinless chicken breast in a pre-chilled meat grinder; from tissue; host or cells: chicken breast (skeletal) muscle, via acetone powder
Experiment: pyrene actin assay (decrease in fluorescence of filamentous pyrene-actin on addition of cofilin)
Assay type: biochemical, chicken
Conditions: addition of stoichiometric amounts of cofilin to preassembled pyrene-actin filaments; FIG. 3
Source text: The effect of cofilin on preassembled pyrene-actin filaments is monitored. Two cofilin activities—binding to actin polymer and enhancing depolymerization—combine to reduce the relative fluorescence intensity. Addition of stoichiometric amounts of cofilin results in a 3-5 fold reduction in fluorescence intensity. In both these assays, any inhibitor will result in an increase in relative fluorescence intensity. For both graphs, the x-axes show cycle number (1 cycle/30 sec) and the y-axes reflect fluorescence in arbitrary units..
Assays for the interaction of A. fumigatus cofilin and any other cofilin with actin in 384-well plates using a fluorescence as the detection means have been developed. […]
Upon addition of cofilin to filamentous pyrene-actin, two well-characterized biochemical activities can be monitored. First, cofilin binds to the filaments and partially quenches the pyrene fluorescence. Second, it induces filament disassembly, further decreasing pyrene fluorescence. The decrease in fluorescence that results when cofilin is added to filamentous actin is monitored (FIG. 3). An inhibitor of the interaction of cofilin with pyrene-actin will result in an increase in fluorescence. […]
Thaw Actin, Pyrene-Actin and Cofilin pellets on ice or at room temp. […] Take readings at OD290. […]
Add 25 ul of sample into each well. […] Take Pyrene-Kinetic readings (Fluorostar setting) at 150 cycles, 360 to […].

B1: A. fumigatus cofilin: proteins or polypeptides present in A. fumigatus that are capable of binding actin; amino acid sequence SEQ ID NO:2; expressed in E. coli (protein, listed as Aspergillus fumigatus)
chain: MALASGVSIADECITAFNDFRMSGNKANKTKFIIFKIADNKKEVVIDEVSQEEDYEVFRSRLEATKDSKGNPAPRYAVYDVEYDLGGGEGKRSKIVFISWVPSDTPTLWSMIYASTRENLKNALNIHTSIHADDKGDIEWKTVLAEASGGKAGK
modifications: Cofilin sequence
notes: expressed in E. coli
reduction in fluorescence intensity: 3-5 fold
